Measured values: US20180134794A1 (Regeneron, published 2018)

B1: H4H13306P2 (antibody, human IgG4, V domains shown)
VH: EVQLVESGGGLVQPGTSLRLSCAASGFTFDDYAMHWVRQAPGKGLEWVSGITWNSYNIDYADSVKGRFTISRDNAKNSLYLQMNSLRAEDTALYYCAKDDDYSNYVYFDYWGQGTLVTVSS
VL: not shown
B2: H4H13319P2 (antibody, human IgG4, V domains shown)
VH: QVQLVESGGGVVQPGRSLRLSCAASGFTFSSFAMHWVRQAPGKGLEWVAVIWYDGSNDYYAASVKGRFTISRDNSKNTLYLEMNRLRAEDTAVYHCARDNWNYWGGMDVWGQGTTVTVSS
VL: not shown
B3: H1H13316P2 (antibody, V domains shown)
VH: EVQLVESGGGLVQPGGSLRLSCAASGFTFRSYVMSWFRQAPGKGLEWVSGMSGSGGSTSYADSVKGRFTISRDNSKNTLYLLMNSLRTEDTAVYYCAKENGANWNYGYYGMDVWGQGTTVTVSS
VL: not shown
B4: H4H13316P2 (antibody, human IgG4, V domains shown)
VH: B3 VH
VL: not shown
B5: H4H14638D (bispecific antibody, human IgG4, V domains shown)
VH 1: QVQLVESGGGVVQPGRSLRLSCAASGFTFSNFGMHWVRQAPGKGLEWVAGIWFDGSNKNYIDSVKGRFTISRDNSKNTLYLQMNSLRAEDTAVYYCAREGYDSGTDYIPYDIFDIWGQGTMVTVSS
VH 2: EVQLVESGGGLVQPGGSLRLSCAASGFIVTTNYMTWLRQAPGKGLEWVSLIYSSGHTYYADSVKGRFTISRHNSKNTLYLQMDSLRAEDTAVYYCASAFAADVFDIWGQGTMVTVSS
VL: not shown
B6: H4H14636D (bispecific antibody, human IgG4, V domains shown)
VH 1: EVQLVESGGGLVQPGGSLRLSCAASGFIFSNYEMNWVRQAPGKGLEWISYITSSGNMKYYADSVKGRFTISRDNDKNSLYLQMSSLRVEDTAVYYCVRGGRFLEWLTYYVMVVWGQGTTVTVSS
VH 2: B5 VH 2
VL: not shown
B7: H4H16447D (bispecific antibody, human IgG4, V domains shown)
VH 1: QVQLVESGGGVVQPGRSLRLSCAASGFTFSSYAMHWVRQAPGRGLEWVAVIWHDGDVEYYVDSVKDRFTISRDNSKSTLYLQMNSLRAEDTALYYCAREAWDLLRPFDYWGQGTLVTVSS
VH 2: B5 VH 2
VL: not shown
B8: H4H13312P2 (antibody, human IgG4, V domains shown)
VH: B5 VH 2
VL: not shown
B9: H4H13302P2 (antibody, human IgG4, V domains shown)
VH: B5 VH 1
VL: not shown
B10: H4H16448D (bispecific antibody, human IgG4, V domains shown)
VH 1: QVQLVESGGGVVQPGRSLRLSCVASGFSFSNFGMHWVRQAPGKGLEWVAIIWYDGSNKYYSDSVKGRFTISRDNSKNTLYLQMNSLRVDDTAVYYCARFDRWKFDAFDIWGQGTMVTVSS
VH 2: B5 VH 2
VL: not shown
B11: H4H16445D (bispecific antibody, human IgG4, V domains shown)
VH 1: QVQLVESGGGVVQPGGSLRLSCAASGFTFSGYGMHWVRQAPGKGLEWMAVIWYDGSNDYYPDSVKGRFTISRDNSKNTLYLQMNSLRVEDTAVYYCARDAWDLLRSFDYWGQGTLVTVSS
VH 2: B5 VH 2
VL: not shown
B12: H4H16446D (bispecific antibody, human IgG4, V domains shown)
VH 1: QVQLVESGGGVVQPGRSLRLSCAVSGFTFSSYGMHWVRQAPGKGLEWVANIWYDGTNDYYPYSVKGRFTISRDNSQNTLYLQMNSLRAEDTAVYYCAREDFINYRSFDYWGQGTLVTVSS
VH 2: B5 VH 2
VL: not shown
B13: H4H14641D (bispecific antibody, human IgG4, V domains shown)
VH 1: QVQLVESGGGVVQPGRSLRLSCSASGFSFSHFGMHWVRQVPGGGLEWVTSIWFDGSNRYYADSLKGRFTISRDNSKNTLYLEMNSLRAEDTAVYYCVREGILGTTNPYDVFDVWGQGTMVTVSS
VH 2: B5 VH 2
VL: not shown
B14: H4H16449D (bispecific antibody, human IgG4, V domains shown)
VH 1: B2 VH
VH 2: B5 VH 2
VL: not shown
B15: H4H14637D (bispecific antibody, human IgG4, V domains shown)
VH 1: QVQLVESGGGVVQPGTSLRLSCVASGFTFRNFGMHWVRQAPGKGLEWVANIWFDGSNENYVESIQGRFTISRDNSKNTLNLQMNSLRAEDSAVYYCVREGILGTTNPYDAFDVWGQGTMVTVSS
VH 2: B5 VH 2
VL: not shown
B16: H4H13309P2 (antibody, human IgG4, V domains shown)
VH: QVQLVQSGTEVKEPGASVKVSCKASGYSFTTYGISWLRQAPGQGLEWMGWISTYNGDTISAQMLQDRVTLTADTSTRTAYMELRSLRSDDTAVYYCARGHEYDSLVYSYWGQGTLVTVSS
VL: not shown
B17: H4H13295P2 (antibody, human IgG4, V domains shown)
VH: QVQLVESGGGVVQPGRSLRVSCVVSGFTFSSFGMHWVRQAPDKGLEWVAVIWYDGSNDYYSDSVKGRFTISRDNSKNTLFLQMNRLRAEDTAVYYCARANNWNRFDAFDLWGQGTMVTVSS
VL: not shown
B18: H4H13325P2 (antibody, human IgG4, V domains shown)
VH: EVQLLESGGGWVQPGGSLRLSCAASGFAFSNYAMNWVRQTPGKGLEWVSVISSSGGNTYYADSVKGRFAISRDNSRDTLHLQMNRLRVEDTAVYYCAKEIRPYYDLSYYYGMDVWGQGTTVTVSS
VL: not shown
B19: H1H13301P2 (antibody, V domains shown)
VH: B15 VH 1
VL: not shown
B20: H4H13301P2 (antibody, human IgG4, V domains shown)
VH: B15 VH 1
VL: not shown
B21: H4H13291P2 (antibody, human IgG4, V domains shown)
VH: B11 VH 1
VL: not shown
B22: H4H13313P2 (antibody, human IgG4, V domains shown)
VH: B13 VH 1
VL: not shown

Target: human MET (c-Met, hepatocyte growth factor receptor), endogenous on human cell lines (human, UniProt P08581 25-1390)
Sequence (P08581 25-1390 limits assumed, form in doubt): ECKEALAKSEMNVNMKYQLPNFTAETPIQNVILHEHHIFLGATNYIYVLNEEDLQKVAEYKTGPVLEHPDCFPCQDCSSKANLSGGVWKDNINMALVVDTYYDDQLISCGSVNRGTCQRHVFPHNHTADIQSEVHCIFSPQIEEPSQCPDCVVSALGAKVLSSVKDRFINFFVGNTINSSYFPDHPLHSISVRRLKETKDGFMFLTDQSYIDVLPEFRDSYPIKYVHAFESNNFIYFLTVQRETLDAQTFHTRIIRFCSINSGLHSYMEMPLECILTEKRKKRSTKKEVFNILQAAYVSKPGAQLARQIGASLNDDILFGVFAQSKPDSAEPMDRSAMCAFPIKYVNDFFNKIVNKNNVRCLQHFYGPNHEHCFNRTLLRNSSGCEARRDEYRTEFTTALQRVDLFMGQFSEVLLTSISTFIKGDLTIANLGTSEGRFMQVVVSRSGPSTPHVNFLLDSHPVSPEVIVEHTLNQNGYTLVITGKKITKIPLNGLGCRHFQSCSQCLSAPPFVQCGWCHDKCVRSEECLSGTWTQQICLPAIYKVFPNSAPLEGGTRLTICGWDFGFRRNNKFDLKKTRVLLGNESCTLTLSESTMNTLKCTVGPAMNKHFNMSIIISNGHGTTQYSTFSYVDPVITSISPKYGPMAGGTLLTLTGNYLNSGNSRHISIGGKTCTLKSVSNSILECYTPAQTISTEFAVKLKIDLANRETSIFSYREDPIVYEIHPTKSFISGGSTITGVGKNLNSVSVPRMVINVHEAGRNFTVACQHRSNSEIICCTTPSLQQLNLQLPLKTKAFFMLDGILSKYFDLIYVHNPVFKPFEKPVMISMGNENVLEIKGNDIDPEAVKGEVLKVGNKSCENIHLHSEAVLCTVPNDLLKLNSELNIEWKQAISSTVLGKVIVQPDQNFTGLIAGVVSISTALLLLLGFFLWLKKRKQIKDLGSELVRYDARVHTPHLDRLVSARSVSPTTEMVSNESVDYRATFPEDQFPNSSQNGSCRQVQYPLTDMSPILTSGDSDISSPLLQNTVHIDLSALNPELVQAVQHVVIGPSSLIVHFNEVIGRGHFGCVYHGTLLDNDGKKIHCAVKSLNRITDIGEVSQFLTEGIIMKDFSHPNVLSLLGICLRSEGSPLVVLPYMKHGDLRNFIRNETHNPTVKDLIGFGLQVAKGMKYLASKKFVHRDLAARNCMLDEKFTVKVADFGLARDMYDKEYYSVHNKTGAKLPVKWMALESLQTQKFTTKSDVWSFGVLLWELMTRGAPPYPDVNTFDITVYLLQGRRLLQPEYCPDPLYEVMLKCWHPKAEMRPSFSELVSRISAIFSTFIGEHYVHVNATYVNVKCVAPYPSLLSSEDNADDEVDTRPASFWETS
Experiment: cell-based or functional assay
Wherever % Inhibition (HEK293/SRE-Luc Blocking Activity, 1 h mAb pre-bind) is given: test concentration or dose not given here.

Binder | EC50 (Ligand (HGF)-Independent HEK293/SRE-Luc Activation) | % Inhibition (HEK293/SRE-Luc Blocking Activity, 1 h mAb pre-bind) | Fold Response (Ligand (HGF)-Independent HEK293/SRE-Luc Activation) | IC50 (HEK293/SRE-Luc Blocking Activity, 1 h mAb pre-bind)
B1 | 0.013 nM | – | – | –
B2 | 0.18 nM | 67% | 4.8 fold | 0.052 nM
B3 | – | 86% | 1.7 fold | 0.04 nM
B4 | 0.047 nM | 74% | 2.3 fold | 0.0078 nM
B5 | 5.9 nM | 79% | 2.6 fold | 1.1 nM
B6 | 0.28 nM | 74% | 2.8 fold | –
B7 | 1.4 nM | 76% | – | –
B8 | 0.12 nM | 48% | – | –
B9 | – | 45% | 1.8 fold | 1.6 nM
B10 | 0.91 nM | 87% | 4.3 fold | 0.62 nM
B11 | 1 nM | 81% | 4.3 fold | 0.52 nM
B12 | 1.4 nM | 83% | 4 fold | 1 nM
B13 | 84 nM | 75% | 4.4 fold | 2.7 nM
B14 | 0.42 nM | 85% | 4.2 fold | 0.32 nM
B15 | 4.1 nM | 73% | 2.1 fold | –
B16 | 0.39 nM | 77% | 9.2 fold | 0.2 nM
B17 | 0.3 nM | 70% | 2.8 fold | 0.055 nM
B18 | 0.19 nM | 69% | 4.3 fold | 0.013 nM
B19 | – | 42% | 1.4 fold | 3.3 nM
B20 | – | 40% | 1.6 fold | 1.5 nM
B21 | 0.39 nM | 61% | 2.7 fold | 0.13 nM
B22 | – | 47% | 1.2 fold | 2.3 nM
